Earlier results, collected in article PMC5123080.

Target: UNC5B ECD (Mus musculus) (UniProt Q8K1S3)
UniProt Q8K1S3, sequence (Q8K1S3 27-377): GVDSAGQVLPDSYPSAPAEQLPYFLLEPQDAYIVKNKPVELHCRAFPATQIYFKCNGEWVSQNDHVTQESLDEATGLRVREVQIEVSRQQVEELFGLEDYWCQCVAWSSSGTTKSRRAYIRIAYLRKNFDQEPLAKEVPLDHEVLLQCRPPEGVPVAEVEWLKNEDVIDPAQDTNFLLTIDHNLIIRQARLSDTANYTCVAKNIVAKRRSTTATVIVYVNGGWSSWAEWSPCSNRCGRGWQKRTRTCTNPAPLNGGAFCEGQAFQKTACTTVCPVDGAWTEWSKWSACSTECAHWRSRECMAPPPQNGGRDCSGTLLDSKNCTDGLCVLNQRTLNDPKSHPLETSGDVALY

Kd: 12 nM
Substance: Robo4 ECD (from UniProt Q8C310)
